The results in this text go back to paper PMC10868842, “Structural basis of the recognition of adeno-associated virus by the neurological system-related receptor carbonic anhydrase IV” (PLOS Pathogens, 2024).

B1: Mus musculus carbonic anhydrase IV (Car4), amino acids W22 to S277 (receptor)
chain: WCYEIQTKDPRSSCLGPEKWPGACKENQQSPINIVTARTKVNPRLTPFILVGYDQKQQWPIKNNQHTVEMTLGGGACIIGGDLPARYEAVQLHLHWSNGNDNGSEHSIDGRHFAMEMHIVHKKLTSSKEDSKDKFAVLAFMIEVGDKVNKGFQPLVEALPSISKPHSTSTVRESSLQDMLPPSTKMYTYFRYNGSLTTPNCDETVIWTVYKQPIKIHKNQFLEFSKNLYYDEDQKLNMKDNVRPLQPLGKRQVFKS
notes: carbonic anhydrase IV (Car4), Mus musculus, residues 22-277 (W22 to S277); the functional rows use this molecule for Car4; also called wt Car4; truncated Car4 (22-277); not shown: GST, N-terminal, cleaved
B2: Car4 (22-277) H187E (mouse residue changed to its hCar4 counterpart) (receptor, Mus musculus, UniProt Q64444 22-277, looked up)
chain: WCYEIQTKDPRSSCLGPEKWPGACKENQQSPINIVTARTKVNPRLTPFILVGYDQKQQWPIKNNQHTVEMTLGGGACIIGGDLPARYEAVQLHLHWSNGNDNGSEHSIDGRHFAMEMHIVHKKLTSSKEDSKDKFAVLAFMIEVGDKVNKGFQPLVEALPSISKPESTSTVRESSLQDMLPPSTKMYTYFRYNGSLTTPNCDETVIWTVYKQPIKIHKNQFLEFSKNLYYDEDQKLNMKDNVRPLQPLGKRQVFKS
notes: carbonic anhydrase IV (Car4), Mus musculus, residues 22-277; also called H187E_(Car4); source: E. coli BL21 (DE3), purified as the wild type; not shown: GST, N-terminal, cleaved
B3: Car4 (22-277) Q79A (receptor, Mus musculus, UniProt Q64444 22-277, looked up)
chain: WCYEIQTKDPRSSCLGPEKWPGACKENQQSPINIVTARTKVNPRLTPFILVGYDQKQAWPIKNNQHTVEMTLGGGACIIGGDLPARYEAVQLHLHWSNGNDNGSEHSIDGRHFAMEMHIVHKKLTSSKEDSKDKFAVLAFMIEVGDKVNKGFQPLVEALPSISKPHSTSTVRESSLQDMLPPSTKMYTYFRYNGSLTTPNCDETVIWTVYKQPIKIHKNQFLEFSKNLYYDEDQKLNMKDNVRPLQPLGKRQVFKS
notes: carbonic anhydrase IV (Car4), Mus musculus, residues 22-277; also called Q79A_(Car4); source: E. coli BL21 (DE3), purified as the wild type; not shown: GST, N-terminal, cleaved
B4: Car4 (22-277) I70A (receptor, Mus musculus, UniProt Q64444 22-277, looked up)
chain: WCYEIQTKDPRSSCLGPEKWPGACKENQQSPINIVTARTKVNPRLTPFALVGYDQKQQWPIKNNQHTVEMTLGGGACIIGGDLPARYEAVQLHLHWSNGNDNGSEHSIDGRHFAMEMHIVHKKLTSSKEDSKDKFAVLAFMIEVGDKVNKGFQPLVEALPSISKPHSTSTVRESSLQDMLPPSTKMYTYFRYNGSLTTPNCDETVIWTVYKQPIKIHKNQFLEFSKNLYYDEDQKLNMKDNVRPLQPLGKRQVFKS
notes: carbonic anhydrase IV (Car4), Mus musculus, residues 22-277; also called I70A_(Car4); source: E. coli BL21 (DE3), purified as the wild type; not shown: GST, N-terminal, cleaved
B5: Car4 (22-277) T92A (receptor, Mus musculus, UniProt Q64444 22-277, looked up)
chain: WCYEIQTKDPRSSCLGPEKWPGACKENQQSPINIVTARTKVNPRLTPFILVGYDQKQQWPIKNNQHTVEMALGGGACIIGGDLPARYEAVQLHLHWSNGNDNGSEHSIDGRHFAMEMHIVHKKLTSSKEDSKDKFAVLAFMIEVGDKVNKGFQPLVEALPSISKPHSTSTVRESSLQDMLPPSTKMYTYFRYNGSLTTPNCDETVIWTVYKQPIKIHKNQFLEFSKNLYYDEDQKLNMKDNVRPLQPLGKRQVFKS
notes: carbonic anhydrase IV (Car4), Mus musculus, residues 22-277; also called T92A_(Car4); source: E. coli BL21 (DE3), purified as the wild type; not shown: GST, N-terminal, cleaved
B6: Car4 (22-277) E90M (mouse residue changed to its hCar4 counterpart) (receptor, Mus musculus, UniProt Q64444 22-277, looked up)
chain: WCYEIQTKDPRSSCLGPEKWPGACKENQQSPINIVTARTKVNPRLTPFILVGYDQKQQWPIKNNQHTVMMTLGGGACIIGGDLPARYEAVQLHLHWSNGNDNGSEHSIDGRHFAMEMHIVHKKLTSSKEDSKDKFAVLAFMIEVGDKVNKGFQPLVEALPSISKPHSTSTVRESSLQDMLPPSTKMYTYFRYNGSLTTPNCDETVIWTVYKQPIKIHKNQFLEFSKNLYYDEDQKLNMKDNVRPLQPLGKRQVFKS
notes: carbonic anhydrase IV (Car4), Mus musculus, residues 22-277; also called E90M_(Car4); source: E. coli BL21 (DE3), purified as the wild type; not shown: GST, N-terminal, cleaved
B7: Car4 (22-277) V72S (mouse residue changed to its hCar4 counterpart) (receptor, Mus musculus, UniProt Q64444 22-277, looked up)
chain: WCYEIQTKDPRSSCLGPEKWPGACKENQQSPINIVTARTKVNPRLTPFILSGYDQKQQWPIKNNQHTVEMTLGGGACIIGGDLPARYEAVQLHLHWSNGNDNGSEHSIDGRHFAMEMHIVHKKLTSSKEDSKDKFAVLAFMIEVGDKVNKGFQPLVEALPSISKPHSTSTVRESSLQDMLPPSTKMYTYFRYNGSLTTPNCDETVIWTVYKQPIKIHKNQFLEFSKNLYYDEDQKLNMKDNVRPLQPLGKRQVFKS
notes: carbonic anhydrase IV (Car4), Mus musculus, residues 22-277; also called V72S_(Car4); source: E. coli BL21 (DE3), purified as the wild type; not shown: GST, N-terminal, cleaved

One test concerns the target T1, AAV9P31 capsid (adeno-associated virus 9 variant with the 7-mer WPTSYDA inserted in VP3 VR-VIII) (adeno-associated virus 9, UniProt Q6JC40 1-736, WPTSYDA inserted between Q588 and A589).
T1 construct: Assembled icosahedral virus particle carrying a GFP genome; capsids made from a RepCap plasmid usually hold VP1, VP2 and VP3 (surmise); also called AAV9P31 particles; AAV9P31 virion; source: HEK293T, triple-plasmid transfection, purified (iodixanol gradient ultracentrifugation)
Kind of test: cryo-EM structure; AAV9P31 on the grid, Car4 (W22-S277) added and incubated for 5 minutes; icosahedral reconstruction and block-based reconstruction of the 3-fold axis blocks. As to conditions: both partners purified.
As usually defined, the stoichiometry N is the number of molecules, sites or subunits per partner or assembly. Regarding B1, the “stoichiometry N” value was around 3 Car4 per virion.

Another test deals with T1, AAV9P31 capsid (adeno-associated virus …). Kind of test: SPR; BIAcore 8K; AAV9P31 particles immobilised on a CM5 chip by amide coupling (sodium acetate pH 4.0); WT or mutated Car4 proteins flowed over at 30 ul/min, 25 °C, PBST; regeneration with 10 mM glycine pH 2.0. As to conditions: both partners purified. (In general: In SPR one partner is held on a chip, and binding of the other changes the refractive index at the surface.)
As usually defined, the Kd is the free concentration of one partner at which half of the binding sites on the other are occupied at equilibrium, for simple one-to-one binding. A lower Kd goes with a tighter complex. As for B1, the Kd stood at 106 nM. That is a sub-micromolar value.
In the case of B2, the affinity, expressed as Kd, was 0.206 nM. This Kd is about 510-fold lower than that of the molecule before.
Take B3: the Kd turned out to be 292 nM.
The same measure, in the same setting: in the case of B4 it was 743 nM; in that of B5, 379 nM.
On the same count and under the same terms, in the case of B6 it was 32.3 nM.
On the same count and under the same terms, the result for B7 reads 60.7 nM.
